# Measured values from patent US20200079844A1 (Ablynx, published 2020).
# Where two headings read alike, the source gives them in different places.
# B1: PMP1H2 (VHH)
# VHH: QVKLEESGGGLVQPGDSLRLSCAASGRTFSDYSGYTYTVGWFRQAPGKEREFVARIYWSSGNTYYADSVKGRFTISRDIAKNTVDLLMNNLEPEDTAVYYCAARDGIPTSRSVESYNYWGQGTQVTVSS
# notes: Tested as unpurified protein
# B2: TNF16 (TNF2 HUM2) (VHH)
# VHH: EVQLVESGGGLVQPGGSLRLSCAASGFTFSEPSGYTYTIGWFRQAPGKGREFVARIYWSSGLTYYADSVKGRFTISRDIAKNTVDLQMNSLKPEDTAVYYCAARDGIPTSRSVGSYNYWGQGTQVTVSS
# notes: Humanised TNF2, first round
# B3: TNF15 (TNF2 HUM1) (VHH)
# VHH: EVQLVESGGGLVQPGGSLRLSCAASGRTFSEPSGYTYTIGWFRQAPGKGREFVARIYWSSGLTYYADSVKGRFTISRDIAKNTVDLQMNSLKPEDTAVYYCAARDGIPTSRSVGSYNYWGQGTQVTVSS
# notes: Humanised TNF2, first round
# B4: PMP3G2 (VHH)
# VHH: AVQLVESGGGLVQPGDSLRLSCAASGRTFSDYSGYTYTVGWFRQAPGKEREFVARIYWSSGNTYYADSVKGRFTISRDIAKNTVDLLMNNLEPEDTAVYYCAARDGIPTSRSVESYNYWGQGTQVTVSS
# notes: Tested as unpurified protein
# B5: TNF17 (TNF2 HUM3) (VHH)
# VHH: EVQLVESGGGLVQPGGSLRLSCAASGRTFSEPSGYTYTIGWFRQAPGKGREFVARIYWSSGLTYYADSVKGRFTISRDNAKNTVDLQMNSLKPEDTAVYYCAARDGIPTSRSVGSYNYWGQGTQVTVSS
# notes: Humanised TNF2, first round
# B6: TNF18 (TNF2 HUM4) (VHH)
# VHH: EVQLVESGGGLVQPGGSLRLSCAASGRTFSEPSGYTYTIGWFRQAPGKGREFVARIYWSSGLTYYADSVKGRFTISRDIAKNTVDLQMNSLRPEDTAVYYCAARDGIPTSRSVGSYNYWGQGTQVTVSS
# notes: Humanised TNF2, first round
# B7: TNF31 (TNF2 HUM1) (VHH)
# VHH: EVQLVESGGGLVQPGGSLRLSCAASGFTFSEPSGYTYTIGWFRQAPGKGREFVARIYWSSGLTYYADSVKGRFTISRDIAKNTVDLQMNSLRPEDTAVYYCAARDGIPTSRSVGSYNYWGQGTQVTVSS
# notes: Humanised TNF2, second round; tags not restated
# B8: TNF32 (TNF2 HUM2) (VHH)
# VHH: EVQLVESGGGLVQPGGSLRLSCAASGFTFSEPSGYTYTIGWFRQAPGKGREFVARIYWSSGLTYYADSVKGRFTISRDIAKNTVDLQMNSLRPEDTAVYYCAARDGIPTSRSVGSYNYWGQGTLVTVSS
# notes: as for B7
# B9: TNF19 (TNF2 HUM5) (VHH)
# VHH: EVQLVESGGGLVQPGGSLRLSCAASGRTFSEPSGYTYTIGWFRQAPGKGREFVARIYWSSGLTYYADSVKGRFTISRDIAKNTVDLQMNSLKPEDTAVYYCAARDGIPTSRSVGSYNYWGQGTLVTVSS
# notes: Humanised TNF2, first round
# B10: PMP6B4 (VHH)
# VHH: EVQLVESGGGLVQEGGSLRLACAASERIWDINLLGWYRQGPGNERELVATITVGDSTSYADSVKGRFTISRDYDKNTLYLQMNSLRPEDTGLYYCKIRRTWHSELWGQGTQVTVSS
# notes: Class C serum albumin nanobody; tested as unpurified protein
# B11: PMP6C1 (VHH)
# VHH: AVQLVDSGGGLVQPGGSLRLSCAASGFSFGSFGMSWVRQYPGKEPEWVSSINGRGDDTRYADSVKGRFSISRDNAKNTLYLQMNSLKPEDTAEYYCTIGRSVSRSRTQGTQVTVSS
# notes: Class B serum albumin nanobody; tested as unpurified protein
# B12: PMP6 G8 (VHH)
# VHH: AVQLVESGGGLVQPGGSLRLTCTASGFTFRSFGMSWVRQAPGKDQEWVSAISADSSTKNYADSVKGRFTISRDNAKKMLYLEMNSLKPEDTAVYYCVIGRGSPSSPGTQVTVSS
# notes: serum albumin nanobody, class A
# B13: PMP6 A5 (VHH)
# VHH: QVQLAESGGGLVQPGGSLRLTCTASGFTFGSFGMSWVRQAPGEGLEWVSAISADSSDKRYADSVKGRFTISRDNAKKMLYLEMNSLKSEDTAVYYCVIGRGSPASQGTQVTVSS
# notes: as for B12
# B14: PMP1G11 (VHH)
# VHH: QVQLQESGGGMVQPGGSLRLSCAASGFDFGVSWMYWVRQAPGKGLEWVSEINTNGLITKYPDSVKGRFTISRDNAKTTLYLQMNSLKPEDTALYYCARSPSGSFRGQGTQVTVSS
# notes: Tested as unpurified protein
# B15: PMP1H6 (VHH)
# VHH: EVQLVESGGGLVQPGGSLRLSCATSGFDFSVSWMYWVRQAPGKGLEWVSEINTNGLITKYVDSVKGRFTISRDNAKNTLYLQMDSLIPEDTALYYCARSPSGSFRGQGTQVTVSS
# notes: Tested as unpurified protein
# B16: PMP6 G7 (VHH)
# VHH: QVQLVESGGGLVQPGGSLRLSCAASGFTFSNYWMYWVRVAPGKGLERISRDISTGGGYSYYADSVKGRFTISRDNAKNTLYLQMNSLKPEDTALYYCAKDREAQVDTLDFDYRGQGTQVTVSS
# notes: serum albumin nanobody, class D
# B17: TNF20 (TNF3 HUM1) (VHH)
# VHH: EVQLVESGGGLVQPGGSLRLSCAASGRSLSNYYMGWFRQAPGKGRELLGNISWRGYNIYYKDSVKGRFTISRDDSKNTIYLQMNSLKPEDTAVYYCAASILPLSDDPGWNTYWGQGTQVTVSS
# B18: TNF21 (TNF3 HUM2) (VHH)
# VHH: EVQLVESGGGLVQPGGSLRLSCAASGFTFSNYYMGWFRQAPGKGRELLGNISWRGYNIYYKDSVKGRFTISRDDSKNTIYLQMNSLKPEDTAVYYCAASILPLSDDPGWNTYWGQGTQVTVSS
# B19: TNF22 (TNF3 HUM3) (VHH)
# VHH: EVQLVESGGGLVQPGGSLRLSCAASGRSLSNYYMGWFRQAPGKGRELLGNISWRGYNIYYKDSVKGRFTISRDDSKNTIYLQMNSLKTEDTAVYYCAASILPLSDDPGWNTYWGQGTQVTVSS
# B20: TNF33 (TNF3 HUM1) (VHH)
# VHH: EVQLVESGGGLVQPGGSLRLSCAASGRSLSNYYMGWFRQAPGKGRELLGNISWRGYNIYYKDSVKGRFTISRDDSKNTIYLQMNSLRPEDTAVYYCAASILPLSDDPGWNTYWGQGTLVTVSS
# B21: TNF23 (TNF3 HUM4) (VHH)
# VHH: EVQLVESGGGLVQPGGSLRLSCAASGRSLSNYYMGWFRQAPGKGRELLGNISWRGYNIYYKDSVKGRFTISRDDSKNTIYLQMNSLKPEDTAVYYCAASILPLSDDPGWNTYWGQGTLVTVSS
# B22: TNF2-GS9-TNF2 (TNF5) (VHH)
# chain: QVQLVESGGGLVQAGGSLRLSCAASGRTFSEPSGYTYTIGWFRQAPGKEREFVARIYWSSGLTYYADSVKGRFTISRDIAKNTVDLLMNSLKPEDTAVYYCAARDGIPTSRSVGSYNYWGQGTQVTVSSGGGGSGGGSQVQLVESGGGLVQAGGSLRLSCAASGRTFSEPSGYTYTIGWFRQAPGKEREFVARIYWSSGLTYYADSVKGRFTISRDIAKNTVDLLMNSLKPEDTAVYYCAARDGIPTSRSVGSYNYWGQGTQVTVSS
# notes: Bivalent nanobody, 9 AA GlySer linker
# Key:
# human TNFα [1] = biological target: T1, human TNFα (human, UniProt P01375 77-233)
# T1 construct: Biotinylated in the ELISAs, amine-coupled to CM5 in Biacore; also called human TNF-alpha; hTNF-alpha
# human TNFα [2] = biological target: T1, human TNFα; assay: cell-based or functional assay
# human TNFα [3] = biological target: T1, human TNFα; remark: listed apart in the source
# human TNFα [4] = biological target: T1, human TNFα; assay: cell-based or functional assay; remark: listed apart in the source
# human TNFα [5] = biological target: T1, human TNFα; assay: ELISA on biotinylated human TNFα captured on neutravidin (as Example 10); untreated reference and mildly treated samples
# human TNFα [6] = biological target: T1, human TNFα; remark: listed apart in the source
# human serum albumin = biological target: T2, human serum albumin (human, UniProt P02768 25-609)
# T2 construct: On the Biacore chip; also called human albumin
# rhesus serum albumin = biological target: T3, rhesus serum albumin (rhesus, UniProt Q28522 17-600)
# T3 construct: On the Biacore chip; also called rhesus albumin
# mouse serum albumin = biological target: T4, mouse serum albumin (mouse, UniProt P07724 25-608)
# T4 construct: On the Biacore chip; also called mouse albumin
# human TNFα [7] = biological target: T1, human TNFα; assay: cell-based or functional assay; remark: listed apart in the source
# rhesus TNFα = rhesus TNFα (rhesus, UniProt P48094 77-233); assay: cell-based or functional assay
# human TNFα [8] = biological target: T1, human TNFα; assay: cell-based or functional assay; remark: listed apart in the source
# human TNFα [9] = biological target: T1, human TNFα; assay: competition ELISA, biotinylated human TNFα pre-incubated with nanobody, binding to coated Enbrel; 50% inhibition
# T1 sequence (P01375 77-233 limits assumed): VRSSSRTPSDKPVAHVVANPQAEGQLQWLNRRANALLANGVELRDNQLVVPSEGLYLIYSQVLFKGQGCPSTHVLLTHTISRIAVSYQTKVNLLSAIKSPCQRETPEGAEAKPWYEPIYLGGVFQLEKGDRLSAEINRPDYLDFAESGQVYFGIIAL
# T3 sequence (Q28522 17-600 limits assumed): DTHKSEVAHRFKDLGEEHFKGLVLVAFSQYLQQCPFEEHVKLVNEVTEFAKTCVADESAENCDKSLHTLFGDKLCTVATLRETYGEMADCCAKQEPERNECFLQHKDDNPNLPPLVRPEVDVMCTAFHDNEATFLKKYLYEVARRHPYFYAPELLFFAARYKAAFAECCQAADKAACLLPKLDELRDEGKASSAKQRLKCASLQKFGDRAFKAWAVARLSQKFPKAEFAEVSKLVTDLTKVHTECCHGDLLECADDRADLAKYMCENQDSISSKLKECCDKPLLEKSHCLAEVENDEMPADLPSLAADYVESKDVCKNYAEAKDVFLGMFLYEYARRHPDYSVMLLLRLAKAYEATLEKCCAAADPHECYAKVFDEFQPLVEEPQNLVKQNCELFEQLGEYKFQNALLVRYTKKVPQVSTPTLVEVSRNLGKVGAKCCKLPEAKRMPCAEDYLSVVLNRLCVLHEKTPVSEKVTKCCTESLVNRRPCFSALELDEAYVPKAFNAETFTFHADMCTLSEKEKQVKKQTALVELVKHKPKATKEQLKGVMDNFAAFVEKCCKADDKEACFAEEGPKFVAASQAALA
# T4 sequence (P07724 25-608 limits assumed): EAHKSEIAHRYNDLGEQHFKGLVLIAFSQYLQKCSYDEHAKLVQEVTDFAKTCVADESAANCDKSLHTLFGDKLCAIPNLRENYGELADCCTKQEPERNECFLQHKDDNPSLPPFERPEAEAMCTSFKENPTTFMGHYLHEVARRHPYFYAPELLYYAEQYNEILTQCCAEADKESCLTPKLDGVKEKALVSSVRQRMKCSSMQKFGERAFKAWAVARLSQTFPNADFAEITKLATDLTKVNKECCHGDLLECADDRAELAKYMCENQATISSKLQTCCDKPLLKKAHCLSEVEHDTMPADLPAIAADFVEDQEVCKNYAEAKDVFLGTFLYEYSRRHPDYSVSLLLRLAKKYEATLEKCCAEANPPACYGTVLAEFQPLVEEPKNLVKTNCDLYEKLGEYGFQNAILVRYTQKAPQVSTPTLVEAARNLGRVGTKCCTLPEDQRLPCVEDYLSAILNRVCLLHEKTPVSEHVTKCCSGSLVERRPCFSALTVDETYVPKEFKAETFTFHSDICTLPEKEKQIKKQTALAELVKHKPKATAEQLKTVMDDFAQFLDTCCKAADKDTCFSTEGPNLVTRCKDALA
# Sequence of rhesus TNFα (P48094 77-233 limits assumed): as the sequence (P01375 77-233 limits assumed) above, with R44T, T72N, R138L counted along it
binder,measurement,setting,value
B1,koff,human TNFα [1],0.00365 s⁻¹
B2,"EC50 in nM (mean); L929s + Act D cytotoxicity assay, human TNFa @ 0.5 ng/ml",human TNFα [2],2.42 nM
same,koff,human TNFα [3],0.00066 s⁻¹
same,"EC50 in nM (mean); L929s + Act D cytotoxicity assay, human TNFa @ 0.5 ng/ml",human TNFα [4],1.9 nM
B3,"EC50 in nM (mean); L929s + Act D cytotoxicity assay, human TNFa @ 0.5 ng/ml",human TNFα [2],5.9 nM
same,koff,human TNFα [3],0.00054 s⁻¹
same,"EC50 in nM (mean); L929s + Act D cytotoxicity assay, human TNFa @ 0.5 ng/ml",human TNFα [4],1.67 nM
B4,koff,human TNFα [1],0.0109 s⁻¹
B5,"EC50 in nM (mean); L929s + Act D cytotoxicity assay, human TNFa @ 0.5 ng/ml",human TNFα [2],7.55 nM
same,koff,human TNFα [3],0.0011 s⁻¹
same,"EC50 in nM (mean); L929s + Act D cytotoxicity assay, human TNFa @ 0.5 ng/ml",human TNFα [4],3.02 nM
B6,"EC50 in nM (mean); L929s + Act D cytotoxicity assay, human TNFa @ 0.5 ng/ml",human TNFα [2],3.13 nM
same,koff,human TNFα [3],0.0007 s⁻¹
same,"EC50 in nM (mean); L929s + Act D cytotoxicity assay, human TNFa @ 0.5 ng/ml",human TNFα [4],1.51 nM
B7,"EC50 in nM (mean); L929s + Act D cytotoxicity assay, human TNFa @ 0.5 ng/ml",human TNFα [2],2.19 nM
same,EC50 (read off the curve),human TNFα [5],~10 ng/mL
same,koff,human TNFα [6],0.00063 s⁻¹
B8,"EC50 in nM (mean); L929s + Act D cytotoxicity assay, human TNFa @ 0.5 ng/ml",human TNFα [2],2.51 nM
same,EC50 (read off the curve),human TNFα [5],~10 ng/mL
same,koff,human TNFα [6],0.00084 s⁻¹
B9,"EC50 in nM (mean); L929s + Act D cytotoxicity assay, human TNFa @ 0.5 ng/ml",human TNFα [2],7.37 nM
same,koff,human TNFα [3],0.00079 s⁻¹
same,"EC50 in nM (mean); L929s + Act D cytotoxicity assay, human TNFa @ 0.5 ng/ml",human TNFα [4],2.19 nM
B10,binding result,human serum albumin,binds
same,binding result,rhesus serum albumin,binds
same,binding result,mouse serum albumin,binds
B11,binding result,human serum albumin,binds
same,binding result,rhesus serum albumin,binds
same,binding result,mouse serum albumin,binds
B12,binding result,human serum albumin,binds
same,binding result,rhesus serum albumin,binds
same,binding result,mouse serum albumin,binds
B13,binding result,human serum albumin,binds
same,binding result,rhesus serum albumin,binds
same,binding result,mouse serum albumin,binds
B14,koff,human TNFα [1],0.00115 s⁻¹
B15,koff,human TNFα [1],0.00214 s⁻¹
B16,binding result,human serum albumin,binds
same,binding result,rhesus serum albumin,binds
B17,"EC50 in nM (mean); L929s + Act D cytotoxicity assay, human TNFa @ 0.5 ng/ml",human TNFα [2],0.38 nM
same,"EC50 in nM (mean); L929s + Act D cytotoxicity assay, human TNFa @ 0.5 ng/ml",human TNFα [4],0.38 nM
B18,"EC50 in nM (mean); L929s + Act D cytotoxicity assay, human TNFa @ 0.5 ng/ml",human TNFα [2],0.889 nM
same,"EC50 in nM (mean); L929s + Act D cytotoxicity assay, human TNFa @ 0.5 ng/ml",human TNFα [4],0.889 nM
B19,"EC50 in nM (mean); L929s + Act D cytotoxicity assay, human TNFa @ 0.5 ng/ml",human TNFα [2],0.303 nM
same,"EC50 in nM (mean); L929s + Act D cytotoxicity assay, human TNFa @ 0.5 ng/ml",human TNFα [4],0.303 nM
B20,"EC50 in nM (mean); L929s + Act D cytotoxicity assay, human TNFa @ 0.5 ng/ml",human TNFα [2],0.3 nM
B21,"EC50 in nM (mean); L929s + Act D cytotoxicity assay, human TNFa @ 0.5 ng/ml",human TNFα [2],0.3 nM
same,"EC50 in nM (mean); L929s + Act D cytotoxicity assay, human TNFa @ 0.5 ng/ml",human TNFα [4],0.3 nM
B22,"EC50 in nM; alphaKYM cell assay (10000 c/w), human TNFa @ 1 ng/ml",human TNFα [7],0.008 nM
same,"EC50 in nM (mean); L929s + Act D cytotoxicity assay, rhesus TNFa @ 0.5 ng/ml",rhesus TNFα,35 nM
same,"EC50 in nM (mean); L929s + Act D cytotoxicity assay, human TNFa @ 0.5 ng/ml",human TNFα [8],0.02 nM
same,IC50,human TNFα [9],6.3 ng/mL
